Source: patent publication US20040143098

System: DBF1 (Zea mays)
Experiment: cell_activity
Details: maize callus, GUS reporter; nearly 3-fold with ABA

Sequence of DBF1 (Zea mays) (chain, as listed by the source): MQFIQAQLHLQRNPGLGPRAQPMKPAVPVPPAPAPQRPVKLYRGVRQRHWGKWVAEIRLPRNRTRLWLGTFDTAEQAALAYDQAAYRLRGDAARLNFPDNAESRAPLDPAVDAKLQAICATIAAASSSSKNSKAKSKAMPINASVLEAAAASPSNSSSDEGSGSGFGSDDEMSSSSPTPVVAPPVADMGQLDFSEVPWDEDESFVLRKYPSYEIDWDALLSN

## rab17 promoter -350/+30
  activity: 2 fold
